In patent publication US20210060157A1 (published 2021):
Positions count from the first letter of the chain named. Values joined by “and” are separate entries in the source; they are usually repeats but may differ in a detail not shown here. Identical values can stand only once.

T1: peptide 420 (human)
T1 peptide: DGRQLEWGLERTRLSS

T2: peptide 418 (human)
T2 construct: Synthesized and spotted on a membrane (peptide array)
T2 peptide: GSCQDGRQLEWGLERT

B1: rat anti-human C6 monoclonal antibody 7E5 (antibody, V domains shown)
VH: EVQLVESDGGLVQPGGSLKLSCVASGFSFSDYYMAWVRQGPTKGLEWVATINYDGSSTYYRESVKGRFTISRDNAKRTLYLQMDSLRSEDTATYYCSRPSTEALFAYWGHGTLVTVSS
VL: DVVLTQTPSTLSATIGQSVSISCRSSQSLLNDVGNTYLYWYLQRPGQSPQLLIYLVSDLGSGVPNRFSGSGSGTDFTLKISGVEAEDLGIYYCMQASHAPYTFGAGTNLELK
notes: Whole antibody (150 kDa analyte in SPR) from a rat hybridoma; also called 7E5 mAb; supernatant #11
B2: humanized 7E5 Fab 7F06 (Fab, V domains shown)
VH: B1 VH with D8G, V23A, S28T, S30R, T42G, R77N, T78S, S88A, T93V, S97A
VL: B1 VL with S9L, A13V, I15P, S18P, R44K, G82R, L88V, I90V, N108R
notes: also called 7F6
B3: humanized 7E5 Fab 7E11 (Fab, V domains shown)
VH: B1 VH with D8G, K19R, S28T, G40A, T42G, R77N, S88A, T93V, S97A, H110Q
VL: B1 VL with V2I, S9L, T10S, I15P, N65D, G82R, L88V, I90V, L111I
B4: humanized 7E5 Fab 8F07 (Fab, V domains shown)
VH: B1 VH with D8G, K19R, V23A, T42G, R77N, D84N, S97A
VL: B1 VL with S9L, A13V, I15P, R44K, N65D, L88V, I90V, N108K, L111I
notes: also called 8F7
B5: humanized 7E5 Fab 7F11 (Fab, V domains shown)
VH: B1 VH with V23A, S28T, R77N, D84N, S88A, T93V
VL: B1 VL with A13V, I15P, S18P, R44K, L88V, I90V, N108R, L111I
B6: humanized 7E5 Fab 8G09 (Fab, V domains shown)
VH: B1 VH with K19R, S28T, G40A, T42G, S88A, T93V, S97A, H110Q
VL: B1 VL with V2I, S9L, A13V, I15P, R44K, G82R, L88V, I90V, N108R, L111I
B7: humanized 7E5 Fab 7E12 (Fab, V domains shown)
VH: B1 VH with V23A, S28T, T42G, R77N, D84N, S88A, S97A
VL: B1 VL with A13V, I15P, S18P, V19A, R44K, G82R, L88V, A105Q, L111I
B8: humanized 7E5 Fab 7F02 (Fab, V domains shown)
VH: B1 VH with D8G, V23A, S28T, T42G, R77N, T78S, D84N, T93V, S97A
VL: B1 VL with L4M, I15P, V19A, R44K, G82R, L88V, N108R
notes: also called 7F2

How the values were obtained:
[1] = biological target: T3, human complement component C6 (human, UniProt P13671 22-934); experiment: SPR, Biacore 2000
T3 construct: Protein was purified from human serum (113 kDa); biotinylated in the Fab ELISAs; also called human C6; hC6
Experimental: (§1) Binding Kinetics: To investigate kinetics of 7E5 binding to C6, surface plasmon resonance measurement in a BIACORE 2000 (GE Healthcare) equipped with a research-grade CM5 sensor chip was used. The ligand (C6, 113 kDa) was immobilized using amine-coupling chemistry. The surface of flow cell two was activated for 7 minutes with a 1:1 mixture of 0.1 M NHS (N-hydroxysuccinimide) and 0.4 M EDC (3-(N,N-dimethylamino) propyl-N-ethylcarbodiimide) at a flow rate of 5 μl/min. The ligand at a concentration of 10 μg/ml in 10 mM sodium acetate, pH 5.0, was immobilized at a density of 955 RU. The surface was blocked with a 7 minute injection of 1 M ethanolamine, pH 8.0.
(§2) To collect kinetic binding data, the analytes (anti C6-antibodies, 150 kDa) in 10 mM HEPES, 150 mM NaCl, 0.005% P20, pH 7.4, were injected over the two flow cells at a flow rate of 30 μl/min and at a temperature of 25° C. The injected concentrations differ per antibody. Data were collected at a rate of 1 Hz. The complex was allowed to associate and dissociate for 90 and 300 seconds, respectively. The surfaces were regenerated with a 10 second injection of 0.1 M HCl. Duplicate injections (in random order) of each sample and a buffer blank were flowed over the two surfaces.
(§3) The data were fit to a simple 1:1 interaction model using the global data analysis option available within BiaEvaluation 4.1 software.

[2] = biological target: T3, human complement component C6; experiment: SPR, Biacore 2000, derived from kd
Experimental: as §1, §2, §3

peptide 420 = biological target: T1, peptide 420; experiment: alanine scan on selected peptides (peptide array)
Experimental: Subsequently, an alanine scan (in which alanine is used to replace amino acids one by one) on selected peptides was performed to help pinpoint the epitope.

peptide 418 = biological target: T2, peptide 418; experiment: peptide array of overlapping 16mer C6 peptides on a membrane
Experimental: Peptide arrays were used to determine the epitope of 7E5 in human C6. Consecutive overlapping 16mer peptides (peptides 16 amino acids long, overlapping 14 amino acids) from the C6 protein sequence were synthesized and spotted in a grid pattern on a membrane. The membrane was then incubated with 7E5 antibody to detect which peptide was recognized by the antibody.

[3] = biological target: T3, human complement component C6; experiment: SPR, Biacore 2000, C6 amine-coupled to CM5 chip, antibody as analyte, 25 C, 1:1 model
Experimental: as §1, §2, §3

[4] = biological target: T3, human complement component C6; experiment: ELISA on biotinylated hC6 and Biacore 3000 off-rate screening of periplasmic extracts on immobilized hC6

T3 sequence (P13671 22-934 limits assumed): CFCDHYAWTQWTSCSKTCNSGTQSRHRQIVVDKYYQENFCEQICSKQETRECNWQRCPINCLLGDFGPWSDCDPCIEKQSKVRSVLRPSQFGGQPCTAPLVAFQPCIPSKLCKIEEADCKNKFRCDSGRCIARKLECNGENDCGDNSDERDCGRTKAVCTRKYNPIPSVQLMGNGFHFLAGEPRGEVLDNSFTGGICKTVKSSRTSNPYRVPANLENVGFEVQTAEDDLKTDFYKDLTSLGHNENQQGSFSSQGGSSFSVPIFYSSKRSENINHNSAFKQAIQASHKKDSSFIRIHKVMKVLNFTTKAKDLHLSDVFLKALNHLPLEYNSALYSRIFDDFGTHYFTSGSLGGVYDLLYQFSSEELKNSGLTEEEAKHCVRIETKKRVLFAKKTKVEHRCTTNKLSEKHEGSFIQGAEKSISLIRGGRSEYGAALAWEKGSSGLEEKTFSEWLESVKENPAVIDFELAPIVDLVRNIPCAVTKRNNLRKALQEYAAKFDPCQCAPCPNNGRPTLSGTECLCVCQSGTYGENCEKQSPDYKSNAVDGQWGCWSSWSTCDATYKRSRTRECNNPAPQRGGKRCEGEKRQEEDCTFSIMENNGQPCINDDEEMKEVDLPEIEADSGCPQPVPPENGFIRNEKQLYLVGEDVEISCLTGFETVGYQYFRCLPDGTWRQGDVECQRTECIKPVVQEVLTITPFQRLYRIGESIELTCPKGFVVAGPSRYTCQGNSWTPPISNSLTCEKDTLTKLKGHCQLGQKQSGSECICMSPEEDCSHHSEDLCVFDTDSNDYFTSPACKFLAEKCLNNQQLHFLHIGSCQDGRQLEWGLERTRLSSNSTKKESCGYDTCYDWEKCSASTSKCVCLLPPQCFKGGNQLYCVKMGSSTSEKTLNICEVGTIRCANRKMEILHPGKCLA

Binder	binding result [4]	other results
B1	–	half-life of the 7E5-C6 complex [1]: > 40 h; t1/2 (complex half life) [2]: 45 h and 45.1 h; binding result (peptide 420): binds; binding result (peptide 418): binds; Kd [3]: 0.253 nM; koff [3]: 4.27e-06 s⁻¹; kon [3]: 16900 M⁻¹ s⁻¹
B2	binds	–
B3	binds	–
B4	binds	–
B5	binds	–
B6	binds	–
B7	binds	–
B8	binds	–
